From paper PMC6598307, “Directed evolution of a genetically encoded immobilized lipase for the efficient production of biodiesel from waste cooking oil” (Biotechnology for Biofuels, 2019)

Substrate: CCCCCCCCCCCCCCCC(=O)Oc1ccc([N+](=O)[O-])cc1
Assay: purified protein
Type: biochemical, Proteus mirabilis
Conditions: soluble free enzyme, 0.1 M NaH2PO4 pH 7.0, 25 °C, 1 nM enzyme, pNPP 0-2.25 mM, pNPP stock in MeCN:Triton X-100 1:1

B1: Proteus mirabilis lipase (PML), soluble (Proteus mirabilis HI4320) (protein)
chain: MSTKYPIVLVHGLAGFNEIVGFPYFYGIADALRQDGHQVFTASLSAFNSNEVRGKQLWQFVQTLLQETQAKKVNFIGHSQGPLACRYVAANYPDSVASVTSINGVNHGSEIADLYRRIMRKDSIPEYIVEKVLNAFGTIISTFSGHRGDPQDAIAALESLTTEQVTEFNNKYPQALPKTPGGEGDEIVNGVHYYCFGSYIQGLIAGEKGNLLDPTHAAMRVLNTFFTEKQNDGLVGRSSMRLGKLIKDDYAQDHIDMVNQVAGLVGYNEDIVAIYTQHAKYLASKQL
notes: full-length PML gene in pET28b (NdeI/XhoI), N-terminal His-tag; no signal peptide needed; E. coli BL21(DE3)
Km: 1770 ± 330 µM | kcat: 112 ± 12 s⁻¹ | kcat/Km: 63200 ± 210 M⁻¹ s⁻¹
